From publication PMC6748131, “BFL1 modulates apoptosis at the membrane level through a bifunctional and multimodal mechanism showing key differences with BCLXL” (Cell Death and Differentiation, 2018)
Positions count from the first letter of the chain named. Numbers in names are those of the source.

Legend:
[1] = biological target: T1, BFL1ΔC L21A, Q16548; assay: FCCS; conditions: chain shown with the change; 100% CL GUV; parent: est. 37; read off a plot
T1 chain: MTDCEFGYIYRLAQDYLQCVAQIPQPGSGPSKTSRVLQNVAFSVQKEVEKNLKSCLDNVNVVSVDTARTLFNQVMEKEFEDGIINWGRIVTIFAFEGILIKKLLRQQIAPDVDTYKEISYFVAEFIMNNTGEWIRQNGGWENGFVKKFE

[2] = biological target: T1, BFL1ΔC L21A, Q16548; assay: TIRF single-molecule brightness analysis; conditions: chain shown with the change, 100% CL SLB, 0.5 nM BFL1∆Cg proteins, 1 h at room temperature, read off a plot
[3] = biological target: T2, BFL1ΔC R88D, Q16548; assay: FCCS; conditions: chain shown with the change; 100% CL GUV; parent: est. 37; read off a plot
T2 chain: T1 chain with A21L, R88D

[4] = biological target: T2, BFL1ΔC R88D, Q16548; assay: TIRF single-molecule brightness analysis; conditions: chain shown with the change, 100% CL SLB, 0.5 nM BFL1∆Cg proteins, 1 h at room temperature, read off a plot
[5] = biological target: the molecule itself; assay: single-molecule TIRF brightness analysis; BFL1ΔCg 0.5 nM incubated with LUV 1 h at room temperature, supported lipid bilayers; apoptotic-like membranes
[6] = biological target: the molecule itself; assay: SEC; protein in the presence of 100%CL LUV

B1: BFL1ΔC (BFL1 lacking the C-terminal 24 residues, helix α9), Q16548 L21A (protein)
chain: T1 chain
[1]
  other: %CC (cross-correlation, FCCS): 22%
[2]; parent: est. 26
  other: occurrence of monomers (%): 41%
[2]; parent: est. 73
  other: occurrence of dimers (%): 57%

B2: BFL1ΔC (BFL1 lacking the C-terminal 24 residues, helix α9), Q16548 R88D (protein)
chain: T1 chain with A21L, R88D
[3]
  other: %CC (cross-correlation, FCCS): 35%
[4]; parent: est. 26
  other: occurrence of monomers (%): 27%
[4]; parent: est. 73
  other: occurrence of dimers (%): 71%

B3: BFL1ΔC (BFL1 lacking the C-terminal 24 residues, helix α9) (domain or fragment)
chain: T1 chain with A21L
modifications: Alexa 488 (BFL1ΔCg) or Alexa 647 (BFL1ΔCr) label in FCCS, TIRF and GUV imaging, site not stated; unlabelled in SEC
notes: BFL1 (BCL2A1) lacking the C-terminal 24 residues (helix α9, TA motif); Expressed from the vector pNIC28-Bsa4; Labelled (g, r) and unlabelled forms of the same construct are kept as one molecule; the assay's format tells which was used; also called BFL1ΔCg; BFL1ΔCr
[5]
  stoichiometry N: 2

B4: BFL1ΔC R88D (domain or fragment)
chain: T1 chain with A21L, R88D
modifications: Alexa 488 (g) or Alexa 647 (r) label in FCCS, site not stated; unlabelled in SEC and in the GUV retrotranslocation assay
notes: Same construct as m1 with one point mutation; also called BFL1ΔCg R88D; BFL1ΔCr R88D
[6]
  binding result: binds
